This note sets out measurements from US20230183661A1, “BICOMPATIBLE PEPTIDEBIOCOMPATIBLE PEPTIDES FOR INHIBITION OF AGGREGATION OF B-AMYLOID PROTEIN” (Catholic University Industry Academic Cooperation Foundation, priority 2017, published 2023).

The target of this test is β-amyloid (Aβ) overexpressed in nerve cells (UniProt P05067). Nature of the test: Co-IP from N2a cells, relative score.

In turn, ATKAVCVLKGDGPVQGIINFEQKESNGPVKVWGSIKGLT [Peptide 4 (β 1-3 fragment of SOD1)] showed a Binding strength with β-amyloid of 1.
